Source: patent US20250333498A1 (BIO THERA SOLUTIONS, published 2025)
Positions count from the first letter of the chain named. In names and notes the source's numbering stands. Each block holds one binder with its values, some of them ahead of it.

Legend:
human CLDN18.2 [1] = biological target: T1, human CLDN18.2 (human); assay: flow cytometry on KATOIII cells (CLDN18.2 positive), PE anti-human IgG-Fc secondary antibody
T1 construct: The cell line is named under assay; also called claudin-18 isoform 2
Method: (§1) Flow cytometry was used to detect the binding capacity of anti-CLDN18.2 antibodies and ADCs to cells expressing CLDN18.2, and the specificity of not binding to CLDN18.1 of the antibody was further detected. […] The mixture was incubated at 4° C. for 1 h and washed twice with PBS.

human CLDN18.2 [2] = biological target: T1, human CLDN18.2; assay: flow cytometry on CHO-CLDN18.2 cells
human CLDN18.2 [3] = biological target: T1, human CLDN18.2; assay: flow cytometry on KATOIII cells (item 2)
human CLDN18.2 [4] = biological target: T1, human CLDN18.2; assay: cell-based or functional assay
human CLDN18.2 [5] = biological target: T1, human CLDN18.2; assay: flow cytometry on KATOIII cells (item 2); KATOIII cells; item 2, compared with IMAB362
Method: as §1

human CLDN18.2 [6] = biological target: T1, human CLDN18.2; assay: flow cytometry on CHO-CLDN18.2 cells; CHO-CLDN18.2 cells
Method: as §1

human CLDN18.2 [7] = biological target: T1, human CLDN18.2; assay: flow cytometry on KATOIII cells (item 3); KATOIII cells; item 3, compared with the humanized antibodies
Method: as §1

human CLDN18.1 = human CLDN18.1 (human, UniProt P56856 1-261); assay: flow cytometry on CHO-CLDN18.1 cells, PE anti-human IgG-Fc secondary antibody
Method: as §1

human CLDN18.2 [8] = biological target: T1, human CLDN18.2; assay: flow cytometry on KATOIII cells (item 3); KATOIII cells
Method: as §1

Sequence of human CLDN18.1 (P56856 whole entry): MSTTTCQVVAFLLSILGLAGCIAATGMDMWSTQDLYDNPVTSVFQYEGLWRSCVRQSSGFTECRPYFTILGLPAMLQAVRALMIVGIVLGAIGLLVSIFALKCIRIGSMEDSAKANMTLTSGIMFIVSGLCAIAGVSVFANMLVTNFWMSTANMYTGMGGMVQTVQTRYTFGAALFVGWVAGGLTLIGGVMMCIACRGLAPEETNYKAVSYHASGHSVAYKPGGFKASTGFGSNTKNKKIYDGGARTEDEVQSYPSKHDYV

EC50 (human CLDN18.2 [2]): 30 nM
EC50 (human CLDN18.2 [3]): 8.08 nM
ADCC Reporter Bioassay EC50 (luciferase, Jurkat-NFAT-luc-FcγRIIIa effector cells) (human CLDN18.2 [4]): 0.795 nM
B2: positive Antibody IMAB362 (antibody, V domains shown)
VH: QVQLQQPGAELVRPGASVKLSCKASGYTFTSYWINWVKQRPGQGLEWIGNIYPSDSYTNYNQKFKDKATLTVDKSSSTAYMQLSSPTSEDSAVYYCTRSWRGNSFDYWGQGTTLTVSS
VL: DIVMTQSPSSLTVTAGEKVTMSCKSSQSLLNSGNQKNYLTWYQQKPGQPPKLLIYWASTRESGVPDRFTGSGSGTDFTLTISSVQAEDLAVYYCQNDYSYPFTFGSGTKLEIKR
CDC IC50 (cell killing rate of CHO-CLDN18.2 cells with 5% human serum complement, CCK-8) (human CLDN18.2 [4]): 5.87 nM

EC50 (human CLDN18.2 [6]): 23.3 nM
binding result (human CLDN18.1): no binding (tested: about 330 nM)
EC50 (human CLDN18.2 [8]): 6.92 nM
ADCC Reporter Bioassay EC50 (luciferase, Jurkat-NFAT-luc-FcγRIIIa effector cells) (human CLDN18.2 [4]): 0.0625 nM
B5: humanized Antibody H239H-2b-K-6a (antibody, human IgG1, kappa, V domains shown)
VH: EVQLLESGGGLVQPGGSLRLSCAASGFTFSDYGMHWVRQAPGKGLEWVAYISRGRSTTYSTDTVKGRFTISRDNSKNTLYLQMNSLRAEDTAVYYCARGSYYGNAMDYWGQGTLVTVSS
VL: DIVMTQSPDSLAVSLGERATINCKSSQSLLNSGNQRNYLTWYQQKPGQPPKLLIYWASTRESGVPDRFSGSGSGTDFTLTISSLQAEDVAVYYCQSAYSYPFTFGGGTKLEIKR
notes: Humanized antibody (humanized variable region + human constant region)
CDC IC50 (cell killing rate of CHO-CLDN18.2 cells with 5% human serum complement, CCK-8) (human CLDN18.2 [4]): 0.291 nM

More lines, now with the values behind:

B1: chimeric antibody CH101H1-K-1 (antibody, human IgG1, kappa, V domains shown)
VH: EVQLQESGPELVKPGASVKISCKASGYSFTSYYIHWVKQRPGQGLEWIGWIYPGSGNTKYNEKFKGKATLTADTSSSTAYMQLSSLTSEDSAVYYCARGMDYGNYYLDYWGQGTTLTVSS
VL: DIVMTQSHKFMSTSVGDRVSITCKASQDVGTAVAWYQQKPGQSPKLLIYWASTRHTGVPDRFTGSGSGTDFTLTISNVQSEDLADYFCQQYSSYLTFGAGTKLELKR
notes: Chimeric antibody (murine variable region + human constant region)
EC50 (read off the curve) (human CLDN18.2 [1]): ~10 nM

B3: chimeric Antibody CH239H-2-K-6 (antibody, human IgG1, kappa, V domains shown)
VH: EVKLQESGGGLVKPGGSLKVSCAASGFTFSDYGMHWVRQAPEKGLEWVAYISRGRSTTYSTDTVKGRFTISRDSAKHTLFLQMTSLRSEDTAMYYCARGSYYGNAMDYWGQGTSVTVSS
VL: B2 VL with K18R, K36R, Y93F, N96S, D97A
notes: as for B1
EC50 (human CLDN18.2 [5]): 6.29 nM
EC50 (human CLDN18.2 [6]): 19.9 nM
EC50 (read off the curve) (human CLDN18.2 [1]): ~20 nM
EC50 (human CLDN18.2 [7]): 6.11 nM

B4: humanized Antibody H239H-2a-K-6a (antibody, human IgG1, kappa, V domains shown)
VH: B5 VH with N74S
VL: B5 VL
notes: as for B5
EC50 (human CLDN18.2 [6]): 22.8 nM
binding result (human CLDN18.1): no binding (tested: about 330 nM)
EC50 (human CLDN18.2 [8]): 6.2 nM

B6: chimeric antibody CH394H2-K-1 (antibody, human IgG1, kappa, V domains shown)
VH: EVKLQESGAELMKPGASVKLSCKATGYTFTGYWIEWVKQRPGHGLEWIGEILPGSGSTNYNEKFKGKATFTADTSSNTAYMQLSSLTTEDSAIYYCARAPLEGLRSGFAYWGQGTLVTVSA
VL: DIVLTQSPASLAVSLGQRATISCRASESVDSYGNSFMHWYQQKPGQPPKLLIYRASNLESGIPARFSGSGSRTDFTLTINPVEADDVATYYCQQSNEDPRTFGGGTKLEIKR
notes: as for B1
EC50 (read off the curve) (human CLDN18.2 [1]): ~20 nM
